The values that follow come from PMC12593362, “Mapping the Role of Monomer Conformation in the Amyloid Formation of α‑Synuclein Splice Variants” (Journal of the American Chemical Society, 2025).

This data set concerns the molecule itself. The data set can be described thus: thioflavin T fluorescence + pelleting assay + negative stain TEM; de novo self-assembly into amyloid fibrils; 100 μM monomer in 20 mM sodium phosphate pH 7.4 with 0 mM NaCl, 37 °C, shaking with a Teflon polyball.

B1: α-synuclein splice variant lacking the residues encoded by exons 3 and 5 (αSynΔ3Δ5) (natural protein)
chain: not shown
notes: made from the αSynΔ3 construct with the exon 5 deletion primers; natural splice isoform; No tag is named; Used as soluble monomer and as sonicated fibril seeds; source: E. coli BL21 DE3, purified (boiling, ammonium sulfate precipitation, anion exchange, SEC)
In the case of B1, the binding result is listed as “binds”.
